Changes are numbered by the printed parent chain.
Tests used:
[1] = tested on: WT mTNFα; format: in vivo, mice; settings: C57BL/6 mice, 8 injections of 5 μg over 17 days, CFA/IFA, serum diluted 1/1000
Procedure: (§1) The plates were washed with PBST between incubations.
(§2) 30 μl of 0.5 μg/ml protein was used to coat the wells of Maxisorp 384-well plates (Nunc, Rochester, N.Y.) overnight at 4° C. After washing with PBS+0.05% Tween 20 (PBST), the coated plates were blocked with 80 μl of 1% BSA in PBS, and washed again with PBST. The plates were sequentially incubated with 20 μl of primary antibody or serum diluted in 1% BSA in PBS, 20 μl of HRP-conjugated goat anti-mouse IgG or anti-mouse IgM (Jackson ImmunoResearch Laboratories, West Grove, Pa.), and 20 μl of TMB substrate (KPL, Gaithersburg, Md.), and read at an absorbance of 650 nm. Between incubations, the plates were washed at least six times with PBST.

[2] = target: T1, WT mTNFα (Mus musculus, UniProt P06804); format: in vivo, mice
T1 construct: ELISAs were measured against WT mTNFα aa 1-156; His6 tag followed by factor Xa cleavage site (N, cleaved yes); made in house; host or cells: E. coli BL21(DE3)
T1 sequence (P06804 80-235): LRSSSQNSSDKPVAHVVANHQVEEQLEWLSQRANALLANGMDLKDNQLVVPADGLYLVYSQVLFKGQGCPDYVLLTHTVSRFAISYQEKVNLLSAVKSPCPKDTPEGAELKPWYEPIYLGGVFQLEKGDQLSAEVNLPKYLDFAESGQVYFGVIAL
Procedure: as §1, §2

[3] = tested on: NFκB pathway in HEK293 cells stably expressing NFκB-Luc; settings: NF-κB-luciferase activity analysis of mTNFα variants
Procedure: The biological activities of the proteins were assayed by measuring the mTNFα-induced activation of NFκB pathway in a NFκB-luciferase reporter cell line. […] The stable cells were dissociated with trypsin, resuspended in DMEM containing 10% FBS at 5×10^5 cells/ml, and plated at 20 μl/well in 384-well white plate (Greiner, Longwood, Fla.). After 2 hours incubation at 5% CO2 in a 37° C. tissue culture incubator, 20 μl of TNFα was added to the cells. The cells were continuously incubated for 24 hours. Luciferase activities were measured by addition of 20 μl Bright-Glo (Promega, Madison, Wis.), and the plate was read using a luminescence plate reader.
The activity of pNO2Phe mTNFα mutants was determined by an NFκB-luciferase reporter gene assay using HEK293 cells stably expressing NFκB-luciferase as described previously (Grunewald, J. et al. (2008) “Immunochemical termination of self-tolerance.” Proc Natl Acad Sci USA 105: 11276-11280).

[4] = tested on: C57BL/6 mice, lipopolysaccharide (LPS) challenge; experiment: LPS challenge in TNFα-dependent severe endotoxemia mouse model; format: in vivo
[5] = tested on: CD4+ T cells from immunized mice; experiment: T cell proliferation assay; format: cell-based; settings: Bcl-2 mice, stimulated in vitro with pNO2Phe^86 mTNFα
Procedure: For mice immunized without adjuvant, the RIMMS protocol involved 8 injections (5 μg protein/injection) over a period of 17 days. For mice immunized with adjuvant, CFA was used for the first injection and IFA for the remaining 7 injections. […] To perform the T-cell proliferation assays, CD4^+ T cells from immunized mice were isolated from lymph nodes by magnetic depletion with MACS beads (Miltenyi Biotec). T cells were then placed into culture with irradiated splenocytes from naïve Bcl-2 mice and increasing amounts of antigen. The cultures were incubated for 48 h and then pulsed with [^3H]thymidine overnight. The culture plates were harvested onto filter mats and radioactivity was quantified with a TopCount scintillation counter (PerkinElmer).
Isolation of CD4^+ T cells from the lymph nodes of immunized C57BL/6 mice was carried out by magnetic depletion with MACS beads (Miltenyi Biotec, Auburn, Calif.). T cells were then placed into culture with irradiated splenocytes from naïve C57BL/6 mice and increasing amounts of antigen. Following incubation for 48 h, the cultures were incubated with ^3H-thymidine overnight. After harvesting the culture plates onto filter mats, radioactivity was quantified with a TopCount scintillation counter (PerkinElmer, Boston, Mass.).

B1: WT mTNFα: wild-type murine tumor necrosis factor-α expressed in E. coli (protein)
chain: MSTESMIRDVELAEEALPQKMGGFQNSRRCLCLSLFSFLLVAGATTLFCLLNFGVIGPQRDEKFPNGLPLISSMAQTLTLRSSSQNSSDKPVAHVVANHQVEEQLEWLSQRANALLANGMDLKDNQLVVPADGLYLVYSQVLFKGQGCPDYVLLTHTVSRFAISYQEKVNLLSAVKSPCPKDTPEGAELKPWYEPIYLGGVFQLEKGDQLSAEVNLPKYLDFAESGQVYFGVIAL
Question: Which results are given for B1?
Answer: serum IgG titers against pNO2Phe^86 mTNFα and WT mTNFα [1]: insignificant serum IgG titers; sustaining titers of cross-reactive anti-mTNFα antibodies ([2]; one injection of pNO2Phe^86 mTNFα in CFA, then 7 injections in IFA): cannot sustain significant titers; EC50 [3]: 0.216 nM; survival rate ([4]; active immunization, C57BL/6 mice, LPS 8.5 mg/kg i.p.): 12.5%; survival rate ([4]; passive: pooled serum (100 uL) or purified IgG (4 mg/kg) from immunized Bcl-2 mice, LPS 7.5 mg/kg): 16.7-25.0%; CD4+ T cells specific for pNO2Phe^86 mTNFα elicited by immunization [5]: not when mice were immunized

B2: Phe^86 mTNFα: Tyr^86 Phe mutant of mTNFα, control without NO2 group (protein)
chain: T1 sequence (P06804 80-235) with Y86F
Question: For B2, which anti-TNFα titers ([2]; Bcl2 mice, presence or absence of CFA/IFA) is on record?
Answer: no significant anti-TNFα titers

Question: And the “CD4+ T cells specific for pNO2Phe^86 mTNFα elicited by immunization” value [5]?
Answer: not when mice were immunized

Source: patent US8318172B2, “Breaking immunological tolerance with a genetically encoded unnatural amino acid” (The Scripps Research Institute, priority 2008, dated 2012)
